From PMC10338342
Each block holds one substance with its values, some of them ahead of it.

Assays:
[1] = system: MYC bHLH-LZ;MAX bHLH-LZ (human;human), P01106-1+P61244; experiment: TR-FRET; conditions: about threefold vs without, EMSA/SeEN-seq: 20 mM Tris-HCl pH 7.5, 75 mM NaCl, 10 mM KCl, 1 mM MgCl2, 0.1 mg/ml BSA, 1 mM DTT, room temp ~1 h, TR-FRET: 20 mM Tris-HCl pH 7.5, 75 or 125 mM …
[2] = system: MYC bHLH-LZ;MAX bHLH-LZ (human;human), P01106-1+P61244; experiment: SeEN-seq (EMSA + NGS); conditions: 62.5 nM TF; EMSA/SeEN-seq: 20 mM Tris-HCl pH 7.5, 75 mM NaCl, 10 mM KCl, 1 mM MgCl2, 0.1 mg/ml BSA, 1 mM DTT, room temp ~1 h; TR-FRET: 20 mM Tris-HCl pH 7.5, 75 or 125 mM …
[3] = target: CLOCK bHLH PAS-AB;BMAL1 bHLH PAS-AB WT (mouse;mouse) (UniProt O08785+Q9WTL8); experiment: mass photometry; conditions: EMSA/SeEN-seq: 20 mM Tris-HCl pH 7.5, 75 mM NaCl, 10 mM KCl, 1 mM MgCl2, 0.1 mg/ml BSA, 1 mM DTT, room temp ~1 h, TR-FRET: 20 mM Tris-HCl pH 7.5, 75 or 125 mM …
[4] = target: nucleosome core particle with H2B(T122C–biotin): H2A–H2B(T122C–biotin)–H3.1–H4 octamer wrapped by DNA (human) (UniProt P04908); experiment: FRET or BRET; LANCE TR-FRET forward titration: increasing His–MYC-MAX added to H2B(T122C)-biotinylated NCP SHL+5.1 with Eu-streptavidin, in the presence or absence of OCT4
[5] = target: nucleosome core particle: human histone octamer (H2A, H2B, H3.1, H4) wrapped by DNA (human) (UniProt P04908); experiment: mass photometry; CLOCK-BMAL1 with NCP SHL+5.8 (single E-box), 10 and 60 nM (1:6), 20 mM Tris-HCl pH 7.5, 100 mM KCl, 0.5 mM TCEP
[6] = target: nucleosome core particle: human histone octamer (H2A, H2B, H3.1, H4) wrapped by DNA (human) (UniProt P04908); experiment: mass photometry; CLOCK-BMAL1 with NCP SHL−6.2, 10 and 60 nM (1:6), 20 mM Tris-HCl pH 7.5, 100 mM KCl, 0.5 mM TCEP, 30 min room temperature
[7] = target: nucleosome core particle: human histone octamer (H2A, H2B, H3.1, H4) wrapped by DNA (human) (UniProt P04908); experiment: mass photometry; CLOCK-BMAL1 with NCP SHL+5.8-tandem (2 E-boxes with 7-bp spacing in a 601 sequence), 10 and 60 nM (1:6), 20 mM Tris-HCl pH 7.5, 100 mM KCl, 0.5 mM TCEP
[8] = target: nucleosome core particle: human histone octamer (H2A, H2B, H3.1, H4) wrapped by DNA, P04908;P06899;P68431;P62805; experiment: smTIRF colocalization single-molecule imaging; conditions: substrate NCP

Chain of MYC bHLH-LZ;MAX bHLH-LZ (human;human), P01106-1+P61244 (P01106 366-452, chain 1 of 2): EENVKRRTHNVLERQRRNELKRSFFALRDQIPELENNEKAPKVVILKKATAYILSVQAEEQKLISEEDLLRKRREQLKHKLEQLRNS
Chain of MYC bHLH-LZ;MAX bHLH-LZ (human;human), P01106-1+P61244 (P61244 22-102, chain 2 of 2): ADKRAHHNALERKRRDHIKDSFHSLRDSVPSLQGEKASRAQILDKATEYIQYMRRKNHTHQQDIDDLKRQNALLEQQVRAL

Substance: NCP SHL+5.1 for TR-FRET
- binding signal (fold tighter with OCT4) [1]: 3

Substance: SeEN-seq NCP, E-box at SHL+5.8
- binding signal (log2 enrichment) [2]: 3.5

Substance: NCP SHL+5.8-tandem
- binding signal ([3]; tandem E-box): 51 % bound

- fold strengthening of the binding isotherm in the presence of OCT4 [4]: 3 fold
Substance: MYC-MAX bHLH LZ heterodimer (from UniProt P61244 22-102) (complex)

- N (minority species) [5]: 2
- percent bound (total amount of CLOCK-BMAL1 bound, single E-box) [5]: 19%
- stoichiometry N [6]: 1
- percent bound (total amount of CLOCK-BMAL1 bound, tandem E-boxes) [7]: 51%
Substance: CLOCK-BMAL1 bHLH PAS-AB heterodimer (from UniProt O08785 26-395; Q9WTL8 62-441) (complex)

Substance: SeEN-seq NCP, E-box at SHL-6.2
- binding signal (log2 enrichment) [2]: 2.2

- other: dwell time τoff,1 [8]: 0.6 s
Substance: wild-type MYC-MAX–Spy, labelled with JF549–SpyCatcher (from UniProt P61244) MYC:S405Y; MYC:A408R

Substance: NCP SHL+5.8 (W601)
- binding signal ([3]; 20 nM NCP, single E-box): 19 % bound

- other: dwell time τoff,1 [8]: 0.86 s
- other: dwell time τoff,2 [8]: 22 s
Substance: wild-type MYC-MAX–Spy, labelled with JF549–SpyCatcher (from UniProt P61244) MAX:Y73A; MAX:R76A
